Measured values: PMC12332008, “Ribosome biogenesis in plants requires the nuclear envelope and mitochondria localized OPENER complex” (Nature Communications, 2025)
Where two headings read alike, the source gives them in different places. Each block holds one molecule with its values, some of them ahead of it.

Legend:
[1] = molecular target: T1, OAP1 (recombinant, 6xHis-tag removed) (Arabidopsis thaliana, UniProt F4K9I8 1-303); experiment: SEC; OPNR-OAP1-OAP2 complex after removal of the 6xHis-tag; Superdex200 16/600
T1 construct: OPENER ASSOCIATED PROTEIN 1 (OAP1), Arabidopsis thaliana, AT5G07950; printed molecular weight 34 kDa; not shown: 6xHis, N-terminal, cleaved
T1 sequence (looked up): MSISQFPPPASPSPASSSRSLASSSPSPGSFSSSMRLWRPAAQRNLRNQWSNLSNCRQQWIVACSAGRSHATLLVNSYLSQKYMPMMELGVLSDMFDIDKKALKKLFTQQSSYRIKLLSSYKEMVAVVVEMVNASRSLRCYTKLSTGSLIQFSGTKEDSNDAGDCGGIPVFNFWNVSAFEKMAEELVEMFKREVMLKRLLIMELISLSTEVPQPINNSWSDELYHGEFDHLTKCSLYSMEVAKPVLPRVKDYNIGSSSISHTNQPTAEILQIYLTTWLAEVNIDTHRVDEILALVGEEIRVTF

[2] = molecular target: 6xHis-OAP1 (Arabidopsis thaliana); experiment: co-purification of co-expressed proteins (Ni-NTA); 6xHis-OAP1, OAP2 and OPNR expressed together in E. coli BL21(DE3), purified on Ni-NTA resin by the His tag of OAP1; molar ratio from the gel

stoichiometry N [1]: 1
stoichiometry N [2]: 1
Molecule: OAP2 (recombinant) (natural protein)

stoichiometry N ([1]; both partners purified): 1
stoichiometry N [2]: 1
B1: OPNR (recombinant) (natural protein, Arabidopsis thaliana, UniProt Q6NPG7 1-195, looked up)
chain: MEAVIRKWQQKFRKGKEEMEKWEALQVRWVSLFRNASSIIQRLQEMQNHGSYGALRCLKGIEDAVVQQQMGQLESLLRSMKNVMEEFWGCVLTFEKLHRDGLQLREIESSKRRVEERIGVKPCITDCLEGLSILYDMHQSEYHLKSSILSVLSCLILKPSPGDLNALQYLVVDQPNIPKDEVQHIFDVIFAEEIK
notes: OPENER (OPNR), Arabidopsis thaliana, AT5G43822; printed molecular weight 23 kDa; also called OPENER; source: E. coli BL21(DE3), co-expressed with 6xHis-OAP1 and OAP2 from pACYCDuet-1, co-purified (Ni-NTA, Superdex200)
